Assay results taken from US7132278B2, “PAS kinase” (Board of Regents, The University of Texas System, priority 2001, dated 2006).

Substrate: Nc1ncnc2c1ncn2[C@@H]1O[C@H](COP(=O)(O)OP(=O)(O)OP(=O)(O)O)[C@@H](O)[C@H]1O
Assay: PASK kinase activity (phosphorylation of AMARA peptide), ATP kinetics
Type: biochemical, human
Details: other: HTS kinase assay, AMARA peptide substrate, Tris-HCl pH 7.5, 10 mM MgCl2, room temperature
Method: Biochemical properties of the Pask enzyme. A recombinant baculovirus was engineered to overexpress human PASK enzyme in cultured insect cells. The enzyme was expressed as a fusion with a His6 tag at its amino terminus such that the recombinant polypeptide could be purified by Ni-affinity chromatography. Routine enzyme preparations were harvested from 0.8 liter of cultured Sf-9 cells. Cells were lysed by dounce homogenization in 50 mM Tris-HCl, pH 8.0, 100 mM NaCl, 0.04% β-mercaptoethanol (“lysis buffer”) and spun at 100,000×G for one hour to remove insoluble debris. Soluble material (˜50 ml) was then applied to a 3 ml bed volume of Ni-affinity resin. Following application and 50× column volume wash, bound material was eluted with storage buffer (50 mM HEPES, pH 7.4, 100 mM NaCl, 1 mM DTT, 1 mM EDTA) supplemented with 250 mM imidazole. Eluted material was sequentially subjected to Mono-Q, anion-exchange chromatography, and eluted with increasing NaCl concentration. Fractions were evaluated by SDS-PAGE to identify PASK enriched fractions, pooled and dialyzed against storage buffer supplemented with 10% glycerol. Typical enzyme preparations yield 0.5 mg of intact PASK enzyme judged to be greater than 95% pure by visual inspection of Coomassie-stained SDS-PAGE gels.

B1: human PASK (PAS-kinase), wild type, SEQ ID NO:2 (Homo sapiens) (protein)
chain: MEDGGLTAFEEDQRCLSQSLPLPVSAEGPAAQTTAEPSRSFSSAHRHLSRRNGLSRLCQSRTALSEDRWSSYCLSSLAAQNICTSKLHCPAAPEHTDPSEPRGSVSCCSLLRGLSSGWSSPLLPAPVCNPNKAIFTVDAKTTEILVANDKACGLLGYSSQDLIGQKLTQFFLRSDSDVVEALSEEHMEADGHAAVVFGTVVDIISRSGEKIPVSVWMKRMRQERRLCCVVVLEPVERVSTWVAFQSDGTVTSCDSLFAHLHGYVSGEDVAGQHITDLIPSVQLPPSGQHIPKNLKIQRSVGRARDGTTFPLSLKLKSQPSSEEATTGEAAPVSGYRASVWVFCTISGLITLLPDGTIHGINHSFALTLFGYGKTELLGKNITFLIPGFYSYMDLAYNSSLQLPDLASCLDVGNESGCGERTLDPWQGQDPAEGGQDPRINVVLAGGHVVPRDEIRKLMESQDIFTGTQTELIAGGQLLSCLSPQPAPGVDNVPEGSLPVHGEQALPKDQQITALGREEPVAIESPGQDLLGESRSEPVDVKPFASCEDSEAPVPAEDGGSDAGMCGLCQKAQLERMGVSGPSGSDLWAGAAVAKPQAKGQLAGGSLLMHCPCYGSEWGLWWRSQDLAPSPSGMAGLSFGTPTLDEPWLGVENDREELQTCLIKEQLSQLSLAGALDVPHAELVPTECQAVTAPVSSCDLGGRDLCGGCTGSSSACYALATDLPGGLEAVEAQEVDVNSFSWNLKELFFSDQTDQTSSNCSCATSELRETPSSLAVGSDPDVGSLQEQGSCVLDDRELLLLTGTCVDLGQGRRFRESCVGHDPTEPLEVCLVSSEHYAASDRESPGHVPSTLDAGPEDTCPSAEEPRLNVQVTSTPVIVMRGAAGLQREIQEGAYSGSCHHRDGLRLSIQFEVRRVELQGPTPLFCCWLVKDLLHSQRDSAARTRLFLASLPGSTHSTAAELTGPSLVEVLRARPWFEEPPKAVELEGLAACEGEYSQKYSTMSPLGSGAFGFVWTAVDKEKNKEVVVKFIKKEKVLEDCWIEDPKLGKVTLEIAILSRVEHANIIKVLDIFENQGFFQLVMEKHGSGLDLFAFIDRHPRLDEPLASYIFRQLVSAVGYLRLKDIIHRDIKDENIVIAEDFTIKLIDFGSAAYLERGKLFYTFCGTIEYCAPEVLMGNPYRGPELEMWSLGVTLYTLVFEENPFCELEETVEAAIHPPYLVSKELMSLVSGLLQPVPERRTTLEKLVTDPWVTQPVNLADYTWEEVCRVNKPESGVLSAASLEMGNRSLSDVAQAQELCGGPVPGEAPNGQGCLHPGDPRLLTS
Km: 2.5 mM
